Laboratory results reported in PMC10116596 (Biochemistry, 2023).

Assays:
[1] = target: T1, LcrH_(1–168), class II chaperone LcrH from Y. pestis (Y. pestis, UniProt P21207 1-168); assay: ITC; conditions: both partners purified
T1 construct: also called LcrH/SycD
T1 sequence: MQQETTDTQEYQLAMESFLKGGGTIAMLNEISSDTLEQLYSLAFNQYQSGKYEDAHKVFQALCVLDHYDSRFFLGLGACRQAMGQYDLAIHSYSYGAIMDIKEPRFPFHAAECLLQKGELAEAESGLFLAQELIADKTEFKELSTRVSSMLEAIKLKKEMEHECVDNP

[2] = target: LcrH; design: method as in PMID 23233673; conditions: unbound chaperone weak homodimer; read-out: dimerization KD; cited from earlier work

B1: YopB_(48–57) 10 mer N-terminal anchor peptide of the major translocator YopB (peptide)
peptide: QGVQLPAPLA
notes: source: synthetic peptide
Work on B1 yielded a Kd [1] of 155 µM and a dH [1] of -10.5 kcal/mol.

B2: YopD_(56–65) 10 mer N-terminal anchor peptide of the minor translocator YopD (peptide)
peptide: QVPELIKPSQ
notes: source: synthetic peptide
In the case of B2, the Kd [1] is reported as 82 µM and the dH [1] is reported as -12.2 kcal/mol.

B3: LcrH: class II chaperone from Yersina Sp., forms weak homodimers when unbound (protein)
chain: T1 sequence
For B3, the Kd [2] is listed as about 15 µM.
